# Results from patent US20250075190A1, “DE NOVO DESIGNED LUCIFERASE” (UNIVERSITY OF WASHINGTON, priority 2022, published 2025).
# B1: LuxSit-i: LuxSit variant R60S/A96L/M110V, SEQ ID NO:2, named for high brightness (protein)
# chain: MSEEQIRQFLRRFYEALDSGDADTAASLFHPGVTIHLWDGVTFTSREEFREWFERLFSTSKDAQREIKSLEVRGDTVEVHVQLHATHNGQKHTVDLTHHWHFRGNRVTEVRVHINPTG
# modifications: VARIANT 1 optionally absent; VARIANT 118 optionally absent
# Columns and labels:
# [1] = target: T1, native Renilla reniformis luciferase (RLuc) (Renilla reniformis, UniProt P27652); test: Michaelis-Menten kinetics of native Renilla luciferase (RLuc) with CTZ; assay type: biochemical; details: substrate CTZ; Table 3
# T1 construct: host and tag of RLuc not clearly stated
# T1 sequence (P27652 1-311): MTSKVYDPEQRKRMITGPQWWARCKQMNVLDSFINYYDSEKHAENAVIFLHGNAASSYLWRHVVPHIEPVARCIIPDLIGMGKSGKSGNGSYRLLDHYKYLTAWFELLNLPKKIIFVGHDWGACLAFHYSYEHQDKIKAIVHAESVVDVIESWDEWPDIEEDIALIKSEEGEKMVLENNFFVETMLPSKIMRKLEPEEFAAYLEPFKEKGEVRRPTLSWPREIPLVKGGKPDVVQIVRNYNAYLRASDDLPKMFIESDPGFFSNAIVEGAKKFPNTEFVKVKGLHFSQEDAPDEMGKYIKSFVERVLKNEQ
# From the text: Synthetic genes and oligonucleotides were purchased from Integrated DNA Technologies or GenScript. The synthetic gene was inserted between NdeI and XhoI sites of a pET29b+ vector, containing an N-terminal hexahistidine tag followed by a TEV protease cleavage site and a C-terminal stop codon. Restriction endonucleases, Q5 PCR polymerase, and T4 ligase were purchased from NEB. Plasmid DNA, PCR products, or digested fragments were purified by Qiagen DNA purification kits. DNA sequences were analyzed by Genewiz. Coelenterazine (CTZ) was purchased from Gold Biotechnology. Diphenylterazine (DTZ), pyridyl diphenylterazine (8pyDTZ), and Furimazine (FRZ) were purchased from MedChemExpress. […] DNA and protein concentrations were determined by a NanoDrop™ small-volume 8 channel UV/vis spectrometer. […] All luminescence measurements were acquired by a Biotek Synergy Neo2T™ Multi-Mode Plate Reader. To convert relative arbitrary unit (RLU) to the number of photons, Neo2 plate reader was calibrated by determining the chemiluminescence of luminol with known quantum yield in the presence of horseradish peroxidase and hydrogen peroxide in K2CO3 aqueous solution as previously described^45. SDS PAGE and luminescence images were captured by a Bio-Rad ChemiDocT™ XRS+. Images were analyzed using the Fiji image analysis software. […]
# [2] = Luciferase activities of re-designed sequences based on LuxSit-i (Table 1); assay type: biochemical; details: LuxSit-f and re-designed sequences based on LuxSit-i (Table 1)
# From the text: In another embodiment, the proteins comprise an amino acid sequence at least 30%, 35%, 40%, 45%, 50%, 55%, 60%, 65%, 70%, 75%, 80%, 85%, 90%, 91%, 92%, 93%, 94%, 95%, 96%, 97%, 98%, 99%, or 100% identical to the amino acid selected from the group consisting of SEQ ID NO:1-181, as shown in Table 1. SEQ ID NO:5-181 in Table 1 are re-designed amino acid sequences based on LuxSit-i (SEQ ID NO:2), with their luciferase activities shown.
# [3] = Luminescence decay curves of LuxSit-i in various pH buffers; assay type: biochemical
# Procedure: (§1) FIG. 10. Additional characterization of LuxSit variants. (a) Normalized emission kinetics of 15,000 intact HeLa cells expressing LuxSit-i, 100 nM purified LuxSit-i, or 100 nM purified LuxSit-f in the presence of 50 μM DTZ. The more extended emission kinetics in HeLa cells is likely due to the diffusion rate of DTZ across cell membranes. […] (c) Luminescent quantum yield was estimated from the integrated luminescence signal until completely converting 125 pmol substrates to photons in the presence of 50 nM corresponding luciferase (see Methods). All data points were plotted as the average of triplicate measurements.
# [4] = Substrate specificity on coelenterazine substrate analogs; assay type: biochemical
# Procedure: FIG. 4. High substrate specificity of designed luciferases allows multiplexed bioassay. (a) Chemical structures of Coelenterazine substrate analogs. (b) Activity of LuxSit-i on selected luciferin substrates. Luminescence image (top) and signal quantification (bottom) of the indicated substrate in the presence of 100 nM LuxSit-i. LuxSit-i has high specificity for the design target substrate, DTZ. (c) Heatmap visualization of the substrate specificity of LuxSit-i. Renilla luciferase (RLuc), Gaussia luciferase (GLuc), engineered NLuc from Oplophorus luciferase. […] (d) Luminescence emission spectrum of LuxSit-i/DTZ and RLuc/PP-CTZ can be spectrally resolved by 528/20 and 390/35 filters (shown in dashed bars) and only recognize the cognate substrate. (e) Schematic of the multiplex luciferase assay. […] (f-g) Luminescence signals from cells can be measured under either substrate-resolved or spectrally resolved methods by a plate reader. (f) For the substrate-resolved method, luminescence intensity was recorded without a filter after adding either PP-CTZ or DTZ. […] Luminescence signals were acquired from the lysate of 15,000 cells in CelLytic™ M reagent while CyOFP fluorescence signal was used to normalize cell numbers and transfection efficiencies. […]
# [5] = Michaelis-Menten kinetics measurements of purified luciferases; assay type: biochemical
# Procedure: For Michaelis-Menten kinetics measurements, 25 μL of serial diluted DTZ substrate in Tris pH 8.0 buffer was added into the wells of a white 96-well half-area microplate containing 25 μL of purified luciferases (final enzyme concentration: 100 nM; substrate concentration: 0.78 to 50 μM). Measurements were taken every 1 min (0.1 s integration and 10 s shaking between each interval) for a total of 20 min. Initial velocities were estimated as the average of the light intensities from the first three data points to fit the Michaelis-Menten equation. All relative arbitrary unit (RLU) per second values were converted to photon/s by the luminol-H2O2—HRP calibration method^45. Following the equation: Imax=LQY×kcat×[E], Imax is the maximal photon flux (photon s^−1), [E] is the total enzyme concentration, and V ax is the maximum photon flux per molecule (photon s^−1 molecule^−1) from the fitting of the Michaelis-Menten equation. To determine the luminescent quantum yields, 25 μL of 5 μM individual substrate in PBS was injected into 25 μL PBS containing 100 nM corresponding luciferase. DTZ was used for all LuxSit variants while CTZ was used as the substrate of native RLuc. The luminescence signals were monitored until the reactions were completed (0.1 s integration and measurements were taken every 5 s for a total of 40 min). […] To record emission spectra, 25 μL of 50 μM DTZ in PBS were injected into 25 μL of 200 nM pure luciferases and the emission spectra were collected with 0.1 s integration and 2 nm increments from 300 to 700 num. In vitro luminescence activity measurements of LuxSit-i expressing HEK293T or HeLa cells were done similarly as 15,000 intact cells or lysates were used in the assay instead of purified luciferases. To evaluate the substrate specificity, 25 μL of 50 μM substrate analogs in PBS were added to 25 μL of 200 nM indicated luciferases, and the signals were recorded over 20 min. Data were shown as the total luminescence signal over the first 10 min. We normalized the data by setting the highest emission substrate at 100%.
# [6] = Circular dichroism spectra and thermal denaturation; assay type: physicochemical; details: 220 nm, 25° C. to 95° C.
# From the text: Synthetic genes and oligonucleotides were purchased from Integrated DNA Technologies or GenScript. The synthetic gene was inserted between NdeI and XhoI sites of a pET29b+ vector, containing an N-terminal hexahistidine tag followed by a TEV protease cleavage site and a C-terminal stop codon. Restriction endonucleases, Q5 PCR polymerase, and T4 ligase were purchased from NEB. Plasmid DNA, PCR products, or digested fragments were purified by Qiagen DNA purification kits. DNA sequences were analyzed by Genewiz. Coelenterazine (CTZ) was purchased from Gold Biotechnology. Diphenylterazine (DTZ), pyridyl diphenylterazine (8pyDTZ), and Furimazine (FRZ) were purchased from MedChemExpress. […] DNA and protein concentrations were determined by a NanoDrop™ small-volume 8 channel UV/vis spectrometer. […] All luminescence measurements were acquired by a Biotek Synergy Neo2T™ Multi-Mode Plate Reader. To convert relative arbitrary unit (RLU) to the number of photons, Neo2 plate reader was calibrated by determining the chemiluminescence of luminol with known quantum yield in the presence of horseradish peroxidase and hydrogen peroxide in K2CO3 aqueous solution as previously described^45. SDS PAGE and luminescence images were captured by a Bio-Rad ChemiDocT™ XRS+. Images were analyzed using the Fiji image analysis software.
# Purified protein samples were prepared at 15 μM in pH 7.4 10 mM phosphate buffer. Spectra from 190 nm to 260 nm were recorded at 25° C., 50° C., 75° C., 95° C., and after cooling back to 25° C. Thermal denaturation was monitored at 220 nm from 25° C. to 95° C. […]
# [7] = Luminescent quantum yield of LuxSit variants; assay type: biochemical; details: consuming 125 pmol of DTZ in PBS with 50 nM recombinant luciferase; estimated relative to reported quantum yield of RLuc; mean ± s.d., n = 3
# Procedure: as §1
# For Michaelis-Menten kinetics measurements, 25 μL of serial diluted DTZ substrate in Tris pH 8.0 buffer was added into the wells of a white 96-well half-area microplate containing 25 μL of purified luciferases (final enzyme concentration: 100 nM; substrate concentration: 0.78 to 50 μM). […] The luminescence signals were monitored until the reactions were completed (0.1 s integration and measurements were taken every 5 s for a total of 40 min). […] In vitro luminescence activity measurements of LuxSit-i expressing HEK293T or HeLa cells were done similarly as 15,000 intact cells or lysates were used in the assay instead of purified luciferases. […] Data were shown as the total luminescence signal over the first 10 min. […]
Molecule,Vmax [1] [photon s^−1 molecule^−1],Activity [2],pH dependence of DTZ luminescent reaction [3],selectivity for DTZ over bis-CTZ [4] [fold],higher photon flux over LuxSit (25 μM DTZ),"Relative emission intensity (integrated luminescence intensity over the first 20 min, normalized to LuxSit, 25 μM DTZ in Tris pH 8.0 buffer)",photon flux (photon s^−1) greater than native Renilla reniformis luciferase (RLuc) [5] [%],thermal stability (CD melting) [6],LQY (luminescent quantum yield) [7] [%]
"Oc1ccc(Cc2nc3c(Cc4ccccc4)nc(-c4ccc(O)cc4)cn3c2O)cc1 [CTZ, Coelenterazine]",0.26,,,,,,,,
B1,,763.6,pH-dependent,50,more than 100 fold,153,38,thermostable,14.5 ± 1.8
